Results as given in publication PMC12846278, “Efficient Expression of Lactone Hydrolase Cr2zen for Scalable Zearalenone Degradation in Pichia pastoris” (Toxins, 2025).

Test system: T1, C[C@H]1CCCC(=O)CCC/C=C/c2cc(O)cc(O)c2C(=O)O1
T1 construct: full-length ORF (792 bp, 264 aa, 29 kDa) in pPICZalphaA with alpha-factor secretion signal, secreted from Pichia pastoris X33; ~35 kDa band for Ser-Cr2
Assay: HPLC, ZEN degradation; Lineweaver-Burk
Format: biochemical, Clonostachys rosea
Settings: 20 mM Tris-HCl pH 8.0, 30 °C

With Cr2zen (Clonostachys rosea) the Km was 75.9 ± 2.1 µM.
